{"source": "patent US20050106647A1", "about": "(University of Texas, published 2005)", "biological_target": "PA-BODIPY conjugate (Bacillus anthracis protective antigen conjugated to BODIPY FL) (Bacillus anthracis, UniProt P13423 30-764)", "sequence (P13423 30-764 limits assumed)": "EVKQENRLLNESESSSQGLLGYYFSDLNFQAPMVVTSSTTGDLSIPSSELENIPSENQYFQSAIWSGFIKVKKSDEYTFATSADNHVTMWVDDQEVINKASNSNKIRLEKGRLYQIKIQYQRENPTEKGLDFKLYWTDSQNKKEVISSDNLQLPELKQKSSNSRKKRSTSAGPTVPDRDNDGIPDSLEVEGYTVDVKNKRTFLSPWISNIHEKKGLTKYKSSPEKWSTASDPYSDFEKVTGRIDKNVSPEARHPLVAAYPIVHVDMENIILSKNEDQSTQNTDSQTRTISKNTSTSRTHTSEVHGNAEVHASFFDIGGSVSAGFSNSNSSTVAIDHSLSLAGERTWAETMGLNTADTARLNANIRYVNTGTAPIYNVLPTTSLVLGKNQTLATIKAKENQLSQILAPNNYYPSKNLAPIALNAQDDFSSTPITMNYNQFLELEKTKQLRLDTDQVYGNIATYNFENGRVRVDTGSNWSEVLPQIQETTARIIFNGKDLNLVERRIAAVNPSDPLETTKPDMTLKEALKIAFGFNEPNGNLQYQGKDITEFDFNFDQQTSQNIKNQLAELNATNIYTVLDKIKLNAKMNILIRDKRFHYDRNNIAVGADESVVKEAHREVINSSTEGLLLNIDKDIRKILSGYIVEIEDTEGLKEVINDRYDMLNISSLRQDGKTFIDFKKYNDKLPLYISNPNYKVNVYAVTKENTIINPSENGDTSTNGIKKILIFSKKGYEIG"}
{"binder": "NlpA-[14B7 scFv] fusion anchored on the E. coli inner membrane (scFv) scFv: CDQSSSDIQMTQTTSSLSASLGDRVTISCRASQDIRNYLNWYQQKPDGTVKLLIYYTSRLQSGVPSRFSGSGSGTDYSLTISNQEQEDIGTYFCQQGNTLPWTFGGGTKLEIKRGGGGSGGGGSGGGGSGGGGSEVQLQQSGPELVKPGASVKISCKDSGYAFSSSWMNWVKQRPGQGLEWIGRIYPGDGDTNYNGKFKGKATLTADKSSSTAYMQLSSLTSVDSAVYFCARSGLLRYAMDYWGQGTSVTVSS", "values": [{"measurement": "fold higher mean fluorescence intensity compared to controls", "result": "~9", "unit": "fold"}]}
